The target of test [1] is T1, Cynomolgus monkey DLL3 on HEK293 cells (HEK293-cyno DLL3) (Cynomolgus monkey, UniProt Q9NYJ7 27-618 (human entry)).
T1 chain: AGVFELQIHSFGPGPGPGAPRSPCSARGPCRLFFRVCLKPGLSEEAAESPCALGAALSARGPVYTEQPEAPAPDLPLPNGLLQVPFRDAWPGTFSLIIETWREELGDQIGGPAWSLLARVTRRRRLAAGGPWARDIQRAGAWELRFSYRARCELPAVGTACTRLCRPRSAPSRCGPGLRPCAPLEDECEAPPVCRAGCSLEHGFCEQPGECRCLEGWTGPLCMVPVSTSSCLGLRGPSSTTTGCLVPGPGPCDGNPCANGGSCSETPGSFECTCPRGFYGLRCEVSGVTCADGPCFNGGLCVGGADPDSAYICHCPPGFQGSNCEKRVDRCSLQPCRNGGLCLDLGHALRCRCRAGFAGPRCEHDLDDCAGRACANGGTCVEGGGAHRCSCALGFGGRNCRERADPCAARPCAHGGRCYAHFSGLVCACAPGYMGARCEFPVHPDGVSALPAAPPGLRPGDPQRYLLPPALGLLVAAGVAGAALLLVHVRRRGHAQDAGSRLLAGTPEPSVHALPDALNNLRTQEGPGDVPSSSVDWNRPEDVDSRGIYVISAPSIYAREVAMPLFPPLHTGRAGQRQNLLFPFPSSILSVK
Briefly: flow cytometry, HEK293-cyno DLL3 cells. The procedure: (§1) SHP-77 and HEK293-cyno DLL3 cells were cultured. The culture medium for SHP-77 cells were RPMI1640+10% FBS, and the culture medium for HEK293 cyno DLL3 cells was DMEM+10% FBS+200 μg/ml Hygromycin. The cells were cultured in a T75 cell culture flask at a 37° C. 5% CO₂ incubator. When using cells, they are washed with sterile DPBS, digested with 0.25% trypsin EDTA for about 5 minutes, and then stopped with a complete medium.
(§2) The digested cells were centrifuged at 1000 rpm for 5 min at room temperature. The supernatant was discarded and the cells were resuspended in 100 μL of 1% BSA (in PBS). The cells were counted and adjusted to a cell density of 1E6/m. The dilute cells were seeded in a 96-well round-bottom culture plate (corning 3799), and centrifuged at 1500 rpm for 5 min at 4° C. The supernatant was discarded and the cells were stored at 4° C. until use. Antibody samples to be tested were diluted with 1% BSA (in PBS) at a starting concentration of 100 nM, downwards by a 10-fold gradient for 7 concentrations. The cells were resuspended with the diluted antibody at 100 μL/well and incubated for 1 hour at 4° C. The cells were centrifuged at 1500 rpm for 5 minutes at 4° C. and the supernatant was discarded. The cells were resuspended and washed with 160 μL of 1% BSA (in PBS), centrifuged at 1500 rpm for 5 minutes at 4° C. The supernatant was discarded. The secondary antibody (goat anti human IgG Fc PE) was diluted 1:200 with 1% BSA (in PBS) according to the manufacturer's instructions and the cells were resuspended with the diluted secondary antibody. 100 µL/well, and incubated for 0.5 h at 4° C. The cells were centrifuged at 1500 rpm for 5 minutes at 4° C. and the supernatant was discarded. The cells were resuspended and washed with 160 μL of 1% BSA (in PBS), centrifuged at 1500 rpm for 5 minutes at 4° C. The supernatant was discarded. The cells were resuspended in 100 μL of 1% BSA (in PBS), and filtered across a 300 mesh gauze. The mean fluorescence intensity of the PE channels was measured by flow cytometry.
(§3) The analyzed mean fluorescence intensity was imported into Graphpad to analyze the median-binding concentration (hereinafter referred to as EC50) of antibody and cell and the top mean fluorescence intensity (Top MFI).

The target in test [2] is T2, human DLL3 on SHP-77 cells (human, UniProt Q9NYJ7 27-618).
T2 construct: also called DLL3-expressing cells (SHP-77)
T2 sequence: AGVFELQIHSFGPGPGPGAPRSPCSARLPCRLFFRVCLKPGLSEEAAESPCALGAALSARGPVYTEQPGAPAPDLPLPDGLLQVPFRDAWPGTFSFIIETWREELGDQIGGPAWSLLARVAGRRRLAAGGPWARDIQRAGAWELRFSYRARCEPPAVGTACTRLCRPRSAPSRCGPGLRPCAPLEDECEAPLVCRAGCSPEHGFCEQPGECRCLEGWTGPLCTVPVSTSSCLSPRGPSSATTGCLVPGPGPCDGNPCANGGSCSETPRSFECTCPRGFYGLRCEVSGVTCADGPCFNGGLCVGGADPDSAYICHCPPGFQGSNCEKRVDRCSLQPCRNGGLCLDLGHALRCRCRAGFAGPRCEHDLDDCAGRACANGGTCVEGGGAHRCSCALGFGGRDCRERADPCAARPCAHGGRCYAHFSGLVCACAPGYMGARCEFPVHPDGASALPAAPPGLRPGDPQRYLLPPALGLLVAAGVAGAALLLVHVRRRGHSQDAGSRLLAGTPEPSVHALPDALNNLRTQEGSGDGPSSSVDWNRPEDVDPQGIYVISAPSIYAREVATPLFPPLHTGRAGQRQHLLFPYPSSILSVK
Briefly: flow cytometry, SHP-77 cells. The procedure:
as §1, §2, §3
Background: In flow cytometry, cells or beads pass a laser one at a time.

In test [3] the target is T2, human DLL3 on SHP-77 cells. Description: flow cytometry, SHP-77 cells. As to the method: SHP-77 cells were cultured. The culture medium for SHP-77 cells was RPMI1640+10% FBS. The cells were cultured in a T75 cell culture flask at a 37° C. 5% CO₂ incubator. When using cells, they are washed with sterile DPBS, digested with 0.25% trypsin EDTA for about 5 minutes, and then stopped with a complete medium.
as §2, with “plated” for “seeded”, “antibody,” for “antibody.”
as §3
The source holds these as a separate data set.

Where a chain is given by its changes, count along the chain named. Read-outs that look alike come from different tables or passages of the source.

B1: 39E2D11-1 mouse hybridoma-derived anti-DLL3 chimeric antibody (antibody, V domains shown)
VH: QVQLQQSGAELVKPGASVKMSCKASGYTFISYWITWVKQRPGQGLEWIGDIYPGSGSTTNYNEKFKSKATLTVDTSSSTAYMQLSSLTSEDSAVYYCARETTVGGAYAMDYWGQGTSVTVSS
VL: DIVLTQSPATLSVTPGDSVSLSCRASQSINNNLHWYQQKSHESPRLLIKYVSQSISGIPSRFSGSGSGTDFTLTINSVETEDFGMYFCQQTNSWPLTFGAGTKLELK
Turning to B1, the EC50 was 1.03 nM in test [1], 0.85 nM in test [2] and 1.49 nM in test [3]. Also, the “Top MFI” value turned out to be 445 MFI in test [1], 999 MFI in test [2] and 1650 MFI in test [3].

B2: 45E4D7 mouse hybridoma-derived anti-DLL3 chimeric antibody (antibody, V domains shown)
VH: QVQLQQPGAELVKPGTSVKLSCKASGYTFTSHWITWVKQRPGQGLEWIGDIYPISGSTNNNEKFRNKATLTVDTSSSTAYMQLSSLTSEDSAVYFCAKIITVGGAYVMDYWGQGTSVTVSS
VL: B1 VL with A9V, I29V, N30R, T74S, M85V, T91S
In the case of B2, the results for the EC50 in test [1], in test [2] and in test [3] were 0.71 nM, 0.68 nM and 0.894 nM, respectively. Moreover, the “Top MFI” value was 454 MFI in test [1], 965 MFI in test [2] and 1560 MFI in test [3].

B3: 27E10C5 mouse hybridoma-derived anti-DLL3 chimeric antibody (antibody, V domains shown)
VH: QVQLQQSGAELVKPGASVKISCKASGYAFSSQWMNWVKQRPGKGLEWIGQIYPGNGDTNYNGKFKGKATLTADKSSSTAYIQLSSLTSEDSAVYFCARWFAYWGQGTLVTVSA
VL: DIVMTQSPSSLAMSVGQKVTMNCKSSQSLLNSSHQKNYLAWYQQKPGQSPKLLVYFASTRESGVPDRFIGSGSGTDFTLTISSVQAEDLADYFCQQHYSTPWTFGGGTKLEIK
B3: the values for the EC50 in test [1] and in test [2] were 1.39 nM and 1.2 nM, respectively. Further, the results for the “Top MFI” value in test [1] and in test [2] were 396 MFI and 813 MFI, respectively.

B4: H1-45E4D7 mouse hybridoma-derived humanized anti-DLL3 antibody (antibody, V domains shown)
VH: QVQLVQSGAEVKKPGASVKVSCKASGYTFTSHWITWVRQAPGQGLEWMGDIYPISGSTNNNEKFRNRVTMTRDTSTSTVYMELSSLRSEDTAVYYCAKIITVGGAYVMDYWGQGTLVTVSS
VL: EIVMTQSPATLSVSPGERATLSCRASQSVRNNLHWYQQKPGQAPRLLIYYVSQSISGIPARFSGSGSGTEFTLTISSLQSEDFAVYYCQQSNSWPLTFGGGTKLEIK
For the molecule B4, in test [3], the EC50 is 5.16 nM and the “Top MFI” value turned out to be 1590 MFI.

B5: 26C4D2 mouse hybridoma-derived anti-DLL3 chimeric antibody (antibody, V domains shown)
VH: QVQLQQPGAELVKPGASVKLSCKASGYSFTSYWMHWVKQRPGQGLEWIGMIHPTLGDTNYNEKFKSKATLTVDKSSSTAYMELSSLTSEDSAVYYCARLGSLSMMDYWGQGTSVTVSS
VL: DIQMTQTTSSLSASLGDRVTISCSASQGISNYLNWYQQKPDGTVKLLIYYTSSLHSGVPARFSGSGSGTDYSLTISNLEPEDIAIYYCQQYSKFPYTFGGGTKLEIK
With B5, in test [1], a half-maximal response (EC50) required 0.43 nM and the “Top MFI” value is 421 MFI. Besides, in test [2], a half-maximal response (EC50) required 0.6 nM and the “Top MFI” value stood at 1050 MFI.

B6: 48B6D7 mouse hybridoma-derived anti-DLL3 chimeric antibody (antibody, V domains shown)
VH: QVQLQQPGAELVKPGTSVKLSCEASGYTFSNYWMQWVRQRPGQGLEWIGMILPNSDITNYNENFQTKATLTVDKSSSTAYMQLSSLTSEDSAVYYCARQARYSAMDYWGQGTSVTVSS
VL: B5 VL with A13V, S22N, S53N, A60S, I85T, Q90H
Consider B6, for which, in test [1], the EC50 is 0.53 nM and the “Top MFI” value worked out at 480 MFI. In addition, in test [2], a half-maximal effect (EC50) was put at 0.65 nM and the “Top MFI” value is 990 MFI.

B7: 46A5A4 mouse hybridoma-derived anti-DLL3 chimeric antibody (antibody, V domains shown)
VH: QVQLQQSDAELVKPGASVKISCKVSGYTFTDHTIHWMKQRPEQGLEWIGYIYPRDGYTMYNEKFKGKATLTADKSSSTAYMQLNSLTSEDSAVHFCARAFHALDYWGQGTSVTVSS
VL: B5 VL with I21F, S22T, V44I, A60S, I85T, F94L
Take B7: the EC50 in test [1] was 0.67 nM; in test [2] it was 1.18 nM; in test [3], 1.2 nM. The entries for the “Top MFI” value in test [1], in test [2] and in test [3] were 475 MFI, 1010 MFI and 1570 MFI, respectively.

Usually EC50 stands for the concentration giving half of the maximal effect.

Values taken from US20240239878A1 (SHANGHAI QILU PHARMACEUTICAL RESEARCH AND DEVELOPMENT CENTRE, published 2024).
